Data on one molecule can be found in patent US20100098696A1 (Eli Lilly, published 2010).

Where two headings read alike, the source gives them in different places.

The target of test [1] is T1, Human FGFR-3(IIIb) (human, UniProt P22607-2 23-377, limits assumed).
T1 construct: The construct in the BiaCore experiment is not described; it is probably recombinant ECD-Fc; also called b-splice form of human FGFR-3
T1 sequence (looked up): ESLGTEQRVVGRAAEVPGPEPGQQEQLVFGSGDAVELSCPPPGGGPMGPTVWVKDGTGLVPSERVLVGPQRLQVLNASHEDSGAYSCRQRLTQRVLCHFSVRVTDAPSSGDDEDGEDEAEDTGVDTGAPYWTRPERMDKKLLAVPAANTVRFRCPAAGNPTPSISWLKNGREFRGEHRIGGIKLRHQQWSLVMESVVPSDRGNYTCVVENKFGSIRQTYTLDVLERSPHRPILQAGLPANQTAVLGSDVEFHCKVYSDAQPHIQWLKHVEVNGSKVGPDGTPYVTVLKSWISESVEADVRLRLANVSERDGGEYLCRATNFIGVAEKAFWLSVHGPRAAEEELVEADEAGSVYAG
The test is described as follows: BiaCore 3000 SPR, room temperature. (In general: Surface plasmon resonance follows binding to a sensor surface in real time, without labels.)

In test [2] the target is T2, FGFR-3(IIIb) truncate D1 (25-148)-Fc (human, UniProt P22607 25-148).
T2 construct: range 25-148; Homodimeric Fc fusion; not shown: human Fc tag of the pGS-Fc vector
T2 sequence: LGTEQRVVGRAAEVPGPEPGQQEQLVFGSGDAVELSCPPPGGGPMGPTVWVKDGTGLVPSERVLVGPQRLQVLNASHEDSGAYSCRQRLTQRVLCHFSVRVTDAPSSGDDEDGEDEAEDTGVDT
The test is described as follows: Mesoscale binding assay and BIAcore.

For test [3], the target named is T3, FGFR-3(IIIb) truncate D3 (250-372)-Fc (human, UniProt P22607-2 250-372).
T3 construct: range 250-372; Homodimeric Fc fusion; not shown: human Fc tag of the pGS-Fc vector
T3 sequence (looked up): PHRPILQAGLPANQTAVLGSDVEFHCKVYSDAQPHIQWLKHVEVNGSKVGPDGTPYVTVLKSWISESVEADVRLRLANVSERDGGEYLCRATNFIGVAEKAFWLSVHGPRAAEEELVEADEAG
Kind of test: Mesoscale binding assay and BIAcore.

Test [4] deals with T1, Human FGFR-3(IIIb). The test is described as follows: BiaCore 3000 SPR, room temperature. This is another data set of the same source.
Test [5] addresses T4, FGFR-3(IIIb) or (IIIc) ECD (extracellular domain) Fc tagged soluble recombinant protein (human, UniProt P22607 23-375).
T4 construct: extracellular domain; also called recombinant human FGFR-Fc; not shown: Fc tag
T4 sequence (looked up): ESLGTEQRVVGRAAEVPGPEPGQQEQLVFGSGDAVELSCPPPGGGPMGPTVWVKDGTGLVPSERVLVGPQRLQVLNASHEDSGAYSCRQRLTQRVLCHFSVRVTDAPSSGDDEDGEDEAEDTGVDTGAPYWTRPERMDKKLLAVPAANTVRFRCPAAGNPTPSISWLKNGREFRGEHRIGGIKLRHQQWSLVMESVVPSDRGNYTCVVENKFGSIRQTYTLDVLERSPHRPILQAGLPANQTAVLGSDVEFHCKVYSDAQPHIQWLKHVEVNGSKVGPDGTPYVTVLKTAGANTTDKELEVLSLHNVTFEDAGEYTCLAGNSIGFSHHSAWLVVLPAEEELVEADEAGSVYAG
Kind of test: ELISA blocking assay: FGFR-3 ECD-Fc (1 µg/ml) with antibody dilutions on FGF-1 coated plates; lower end of the range. The source says: (§1) Wash plates 3 times with 0.2% Tween20/PBS. […] Blocking activities lead to decreased signals.
In general terms: In an ELISA, binding on a coated surface is turned into a signal by an enzyme label.

The target of test [6] is T4, FGFR-3(IIIb) or (IIIc) ECD …. Kind of test: ELISA blocking assay: FGFR-3 ECD-Fc (1 µg/ml) with antibody dilutions on FGF-1 coated plates; upper end of the range.
From the text: as §1

B1: Antibody 1 (antibody, human IgG1, lambda)
heavy: not shown
light: QSVLTQPPSLSVAPGKTATFTCGGNNIGDKSVHWYRQKPGQAPVLVMYLDTERPSGIPERMSGSNFGNTATLTITRVEAEDEADYYCQVWDSGSDHVVFGGGTKLTVLGQPKAAPSVTLFPPSSEELQANKATLVCLISDFYPGAVTVAWKADSSPVKAGVETTTPSKQSNNKYAASSYLSLTPEQWKSHRSYSCQVTHEGSTVEKTVAPAECS
notes: Human IgG1 from a naive human Fab phage library; It was ruthenium-labelled in the Mesoscale assay and Alexa Fluor-labelled in the internalisation assay; also called FGFR-3 antibody antagonist
The term Kd denotes a measure of binding affinity in units of concentration. A lower Kd goes with tighter binding. As a reminder, the IC50 is the concentration that gives 50% inhibition. With B1, the Kd in the test with Human FGFR-3(IIIb) [1] amounted to 1 nM; in the test with Human FGFR-3(IIIb) [4], 0.72 nM. For the same molecule, the binding result in test [2] and in test [3] was “no binding (tested: 250-0.001 nM dilution series)” throughout. The IC50 in test [5] is at least 1 nM; in test [6] it was at most 10 nM.
